Changes are numbered by the printed parent chain. Read-outs that look alike come from different tables or passages of the source.
B1: XPA.92.019 (antibody, V domains shown)
VH: EVQLVESGGGLVQPGRSLRLSCAASGFTFSYYGMHWVRQAPGKGLEWVADISNDGSNKYYADSVKGRFTISRDNSKTTLYLQMNSLRPEDTAVYYCATPYYDSSGLDYWGQGTLVTVSS
VL: SYELTQPPSVSVSPGQTARITCSGDALPKRFAYWYQQKAGQAPVLVIYEDNKRPSGIPETLSGSSSGTTATLTISGAQEEDEADYYCYSTDNTGGLWVFGGGTKLTVLG
notes: Tested as purified full-length human IgG; also called mAb19
B2: XPA.92.099 (antibody, V domains shown)
VH: QVQLVESGGGLVKPGRSLRLSCAASGFTFNRYAMSWVRQAPGKGLEWVAMISFDGGNQYYTDSVSGRFTISRDNSKTTLFLQMDSLRTEDTAVYYCVRSPAGDWVAYFDYWGQGTLVTVSS
VL: DIQMTQSPSSLSASIGDRVTIPCQASEDISNHLSWYQQKPGKAPKPLIFDASDLETGVPSRFSGSGSGTDFALTISSLRPDDFATYYCHQYHDYPSYTFGHGTKLEIKR
notes: Tested as purified full-length human IgG; also called mAb99; clone 99
B3: XPA.92.041 (antibody, V domains shown)
VH: EVQLVQSGAEVKKPGESLKISCKGSGYNFDTYWIGWVRQMPGRGLEWMGTIYPADSDTRYSPSFQGQVTTSADKSISTAYLQWGSLRASDTAMYYCARFSSSAYDIWGQGTMVTVSS
VL: SYELTQPPSVSVSPGQTARITCSGDALPRQFAYWYQQKPGQAPVLVIYKDTERPSGIPERFSGSSSGTTVTLTISGVQAEDEADYYCQSADSSGTYHVFGGGTQLTVLG
notes: Tested as purified full-length human IgG
B4: XPA.92.042 (antibody, V domains shown)
VH: B3 VH with A9T, P14A, E16D, T70M
VL: SYELTQPPSVSVSPGQTARITCSGDALPRKFAYWYQQKSGQAPVLVIYQDTKRPSGIPERFSGSSSGTTVTLTISDVQAEDDADYYCQSADRSDSYVFGAGTKLTVLG
notes: as for B3

Legend:
Mouse IL-2 [1] = molecular target: T1, Mouse IL-2 (mouse, UniProt P04351 21-169); assay: listed for comparison in the SPR species cross-reactivity table
T1 sequence (looked up): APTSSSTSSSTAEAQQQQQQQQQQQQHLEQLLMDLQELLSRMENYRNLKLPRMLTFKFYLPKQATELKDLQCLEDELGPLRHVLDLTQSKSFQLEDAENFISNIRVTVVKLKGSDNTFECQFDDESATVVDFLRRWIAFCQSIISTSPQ

Recombinant human IL-2 [2] = molecular target: T2, Recombinant human IL-2 (human, UniProt P60568 21-153); assay: listed for comparison in the SPR table; method for this antibody not described
Recombinant human IL-2 [3] = molecular target: T2, Recombinant human IL-2; assay: cell-based or functional assay
Recombinant human IL-2 [4] = molecular target: T2, Recombinant human IL-2; assay: cell-based or functional assay; remark: listed apart in the source
Recombinant human IL-2 [5] = molecular target: T2, Recombinant human IL-2; assay: cell-based or functional assay; remark: listed apart in the source
CHOk1-IL2Ralpha = molecular target: T3, CHOk1-IL2Ralpha; assay: flow cytometry, IgG binding (MFI); antibody titrated on CHOk1-IL2Ralpha cells without IL2
T3 construct: clone number not given; also called CHO/Rα; CHO/IL-2 Rα
T3 chain: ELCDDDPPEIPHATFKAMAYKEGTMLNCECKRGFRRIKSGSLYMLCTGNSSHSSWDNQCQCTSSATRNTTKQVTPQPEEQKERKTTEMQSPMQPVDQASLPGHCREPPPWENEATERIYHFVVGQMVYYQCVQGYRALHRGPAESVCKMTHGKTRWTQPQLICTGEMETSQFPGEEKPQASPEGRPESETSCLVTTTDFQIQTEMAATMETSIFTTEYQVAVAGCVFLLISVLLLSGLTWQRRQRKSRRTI
Protocol: (§1) After phage-derived antibody fragments were reformatted into full-length human IgGs, the purified antibodies were screened on CHO/Rα, CHO/Rβ, CHO/Rβγ, and parental CHO-K1 cells grown and stained as described above. […] This was allowed to incubate at 4° C. for 1 to 1.5 hours. Bound antibody was detected by the addition of anti-human heavy chain and light chain (Jackson Immuno Research #109-136-088) at 1:1000 and incubating at 4° C. for 30 minutes to 1 hour. Samples were analyzed using BD FACs Canto flow cytometer.

Recombinant human IL-2 [6] = molecular target: T2, Recombinant human IL-2; assay: cell-based or functional assay; remark: listed apart in the source
Recombinant human IL-2 [7] = molecular target: T2, Recombinant human IL-2; assay: cell-based or functional assay; remark: listed apart in the source
Recombinant human IL-2 [8] = molecular target: T2, Recombinant human IL-2; assay: SPR (Biacore 4000), IgG captured on anti-human IgG Fc, rhIL-2 0.11-10 nM
Protocol: (§2) Antibody affinities were measured by SPR using the Biacore 4000 with a standard capture methodology. Briefly, anti-human IgG (Fc specific) from an anti-human antibody capture kit (Biacore) was immobilized onto spots 1, 2, 4, and 5 of all four flow cells of a CM-5 sensor chip by amine coupling according to the manufacturer's instructions. Running buffer was HBS-EP+ with 1% BSA. […] Data were analyzed using the Biacore 4000 Evaluation software.

Mouse IL-2 [9] = molecular target: T1, Mouse IL-2; assay: SPR (Biacore 4000), IgG captured on anti-human IgG Fc, IL-2 30 nM to 1 nM; affinity estimate
Protocol: as §2
(§3) These sequences were imported into vector NTI® (Lifetech) and aligned using the alignx tool.

Rabbit IL-2 = molecular target: T4, Rabbit IL-2 (rabbit, UniProt O77620 21-153, limits assumed); assay: as above
T4 sequence (looked up): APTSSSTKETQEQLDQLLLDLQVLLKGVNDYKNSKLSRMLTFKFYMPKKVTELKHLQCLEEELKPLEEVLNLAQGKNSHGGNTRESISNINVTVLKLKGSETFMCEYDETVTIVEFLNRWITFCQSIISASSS
Protocol: as §2, §3

Recombinant human IL-2 [10] = molecular target: T2, Recombinant human IL-2; assay: cell-based or functional assay; remark: listed apart in the source
Mouse IL-2 [11] = molecular target: T1, Mouse IL-2; assay: SPR (Biacore 4000), IgG captured on anti-human Fc, IL-2 injected
Rat IL-2 [12] = molecular target: T5, Rat IL-2 (rat, UniProt P17108 21-155); assay: as above
T5 sequence (looked up): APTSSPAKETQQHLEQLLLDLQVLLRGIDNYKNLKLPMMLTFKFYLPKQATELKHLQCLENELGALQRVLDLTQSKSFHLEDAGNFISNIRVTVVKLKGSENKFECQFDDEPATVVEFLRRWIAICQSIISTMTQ

[13] = molecular target: T6, human IL-2 Rβγ (IL-2 Rβ and γc) on cells (human, UniProt P14784 27-551; P31785 23-369); assay: flow cytometry, IgG binding (MFI); antibody titrated on CHOk1-IL2Rbeta-gamma (20-21) cells without IL2
T6 construct: whole, on cells; on CD25-depleted human primary NK cells in the pSTAT5 assay; also called CHO/Rβγ; CHO/IL-2 Rβγ (#20-21)
T6 sequence (looked up) 1: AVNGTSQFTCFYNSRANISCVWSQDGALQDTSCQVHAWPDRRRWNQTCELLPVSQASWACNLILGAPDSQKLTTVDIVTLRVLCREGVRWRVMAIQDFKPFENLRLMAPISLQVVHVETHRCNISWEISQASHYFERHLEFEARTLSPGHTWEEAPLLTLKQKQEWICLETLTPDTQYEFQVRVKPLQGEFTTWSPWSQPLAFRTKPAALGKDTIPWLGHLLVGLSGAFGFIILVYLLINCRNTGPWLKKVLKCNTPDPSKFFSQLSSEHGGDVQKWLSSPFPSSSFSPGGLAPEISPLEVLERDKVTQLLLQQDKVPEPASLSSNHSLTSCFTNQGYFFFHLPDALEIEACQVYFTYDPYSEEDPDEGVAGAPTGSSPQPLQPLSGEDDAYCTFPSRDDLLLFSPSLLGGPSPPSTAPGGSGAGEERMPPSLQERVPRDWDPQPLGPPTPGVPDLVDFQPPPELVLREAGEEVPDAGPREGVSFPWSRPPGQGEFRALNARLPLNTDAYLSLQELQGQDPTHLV
T6 sequence (looked up) 2: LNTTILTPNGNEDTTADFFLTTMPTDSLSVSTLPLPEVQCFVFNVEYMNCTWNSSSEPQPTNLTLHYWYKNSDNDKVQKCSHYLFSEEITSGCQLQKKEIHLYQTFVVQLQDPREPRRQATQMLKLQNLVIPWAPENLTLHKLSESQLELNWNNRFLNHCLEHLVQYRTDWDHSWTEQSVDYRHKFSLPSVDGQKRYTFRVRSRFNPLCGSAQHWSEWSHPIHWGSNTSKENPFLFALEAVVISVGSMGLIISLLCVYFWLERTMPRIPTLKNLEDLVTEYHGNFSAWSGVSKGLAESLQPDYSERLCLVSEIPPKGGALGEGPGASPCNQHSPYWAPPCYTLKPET
Protocol: as §1

Rat IL-2 [14] = molecular target: T5, Rat IL-2; assay: SPR (Biacore 4000), IgG captured on anti-human IgG Fc, IL-2 30 nM to 1 nM; affinity estimate
Protocol: as §2, §3

Molecule | pSTAT5a,b Ratio of EC50s (Rαβγ/Rβγ), murine cells (Recombinant human IL-2 [4]) | pSTAT5a,b fold EC50 shift, CTLL-2 (muRαβγ) (Recombinant human IL-2 [4]) | pSTAT5a,b fold EC50 shift, Mouse Primary NK cells (muβγ) (Recombinant human IL-2 [4]) | pSTAT5a,b Ratio of EC50s (Rαβγ/Rβγ), human cells (Recombinant human IL-2 [5]) | pSTAT5a,b fold EC50 shift, Human Primary NK cells (huRβγ) (Recombinant human IL-2 [5]) | pSTAT5a,b fold EC50 shift, NK92 (huRαβγ) (Recombinant human IL-2 [5]) | binding result (CHOk1-IL2Ralpha) | EC50 of IL-2-induced pSTAT5a,b in CD25-depleted human primary NK cells with 100 nM antibody (Recombinant human IL-2 [6]) | EC50 of IL-2-induced pSTAT5a,b in NK-92 cells with 100 nM antibody (Recombinant human IL-2 [6]) | EC50 of IL-2-induced pSTAT5a,b in mouse primary NK cells with 100 nM antibody (Recombinant human IL-2 [6]) | Fold EC50 shift of IL-2-induced proliferation, CTLL-2 (muRαβγ) (Recombinant human IL-2 [7]) | Kd (Recombinant human IL-2 [8]) | koff (Recombinant human IL-2 [8]) | kon (Recombinant human IL-2 [8]) | Kd (Mouse IL-2 [9]) | Kd (Rabbit IL-2) | Fold EC50 shift of IL-2-induced proliferation, BaF3/IL-2 HuRβγ (Recombinant human IL-2 [10]) | Fold EC50 shift of IL-2-induced proliferation, NK92 (huRαβγ) (Recombinant human IL-2 [10]) | Ratio (huRαβγ/Rβγ) of fold EC50 shifts, proliferation (Recombinant human IL-2 [10]) | binding result [13] | further results
MAB602 (antibody) |  |  |  |  |  |  |  |  |  |  |  |  |  |  |  |  |  |  |  |  | Kd (Mouse IL-2 [1]): 10 nM; Kd (Recombinant human IL-2 [2]): 0.12 nM; EC50 of IL-2-induced pSTAT5a,b in NK-92 cells with 100 nM antibody (Recombinant human IL-2 [3]): 900 pM; EC50 of IL-2-induced pSTAT5a,b in mouse primary NK cells with 100 nM antibody (Recombinant human IL-2 [3]): 361 pM
B1 | 35 | 523 fold | 15 fold | 24 | 40 fold | 966 fold | no binding | 5040 pM | 900 pM | 1720 pM | 130 fold | 0.0095 nM | 3.4e-05 s⁻¹ | 3.7e+06 M⁻¹ s⁻¹ | 100 nM | 0.2 nM | 5.2 fold | 33 fold | 6 |  | 
B2 | 17 | 293 fold | 17 fold | 21 | 24 fold | 495 fold |  | 3050 pM | 463 pM |  | 54 fold | 0.044 nM | 0.00024 s⁻¹ | 5.5e+06 M⁻¹ s⁻¹ |  | 0.09 nM | 2.4 fold | 22 fold | 9 |  | binding result (Mouse IL-2 [11]): no binding (tested: IL-2 injected from 30 nM to 1 nM); binding result (Rat IL-2 [12]): no binding (tested: IL-2 injected from 30 nM to 1 nM)
B3 | 34 | 404 fold | 12 fold | 35 | 35 fold | 1230 fold | no binding | 4520 pM | 1150 pM | 1350 pM | 58 fold | 0.058 nM | 0.00032 s⁻¹ | 5.6e+06 M⁻¹ s⁻¹ | 40 nM | 0.5 nM | 3.9 fold | 35 fold | 9 | no binding | Kd (Rat IL-2 [14]): 1 nM
B4 | 57 | 793 fold | 14 fold | 45 | 41 fold | 1860 fold | no binding | 5120 pM | 1700 pM | 1660 pM | 156 fold | 0.028 nM | 0.00025 s⁻¹ | 8.9e+06 M⁻¹ s⁻¹ | 10 nM | 0.6 nM | 5 fold | 52 fold | 10 | no binding | Kd (Rat IL-2 [14]): 6 nM

— patent US20180094053A1 (XOMA US, published 2018)
